Earlier results in paper PMC5998221.

Experiments:
[1] = target: Asp101 (UniProt position 119, KKIVSDGNGMN)
[2] = target: Asp18 (UniProt position 36, KRHGLDNYRGY)
[3] = target: Asp87 (UniProt position 105, ALLSSDITASV)
[4] = target: Asp48 (UniProt position 66, TNRNTDGSTDY)
[5] = target: Glu35 (UniProt position 53, CAAKFESNFNT)
[6] = target: Glu7 (UniProt position 25, VFGRCELAAAM)
[7] = target: Asp66 (UniProt position 84, RWWCNDGRTPG)
[8] = target: Asp52 (UniProt position 70, TDGSTDYGILQ)
[9] = target: Asp119 (UniProt position 137, RCKGTDVQAWI)

Hen egg white lysozyme (HEWL, lysozyme C) (Gallus gallus)
pKa [1]: 4.5
pKa [2]: 2.8
pKa [3]: 2.2
pKa [4]: 1.4
pKa [5]: 6.1
pKa [6]: 2.6
pKa [7]: 1.2
pKa [8]: 3.6
pKa [9]: 3.5
